Source: patent US20260184775A1 (Chugai, published 2026)

Legend:
[1] = target: T1, recombinant mouse latent TGF-beta 1 (Flag-tagged mouse latent TGF-beta 1) (mouse, UniProt P04202 34-390); assay: SPR, Biacore T200, 37 C, pH 7.4; antibody captured by anti-human Fc, latent TGF-beta 1 at 12.5 to 200 nM as analyte; 1:1 model
T1 construct: also called mouse recombinant latent TGF-beta 1
Protocol: (§1) The affinities of anti-latent TGF-beta 1 antibodies binding to human or mouse latent TGF-beta 1 at pH 7.4 were determined at 37 degrees C. using Biacore T200 instrument (GE Healthcare). Anti-human Fc (GE Healthcare) was immobilized onto all flow cells of a CM4 sensor chip using an amine coupling kit (GE Healthcare). All antibodies and analytes were prepared in ACES pH 7.4 containing 20 mM ACES, 150 mM NaCl, 1.2 mM CaCl₂), 0.05% Tween 20, 0.005% NaN3. Each antibody was captured onto the sensor surface by anti-human Fc. Antibody capture levels were aimed at 300 resonance unit (RU). For TBA865 and TBA873, recombinant human or mouse latent TGF-beta 1 was injected at 12.5 to 200 nM prepared by two-fold serial dilution, followed by dissociation. For TBS139 and TBS182, recombinant human or mouse latent TGF-beta 1 was injected at 3.125 to 50 nM prepared by two-fold serial dilution, followed by dissociation. The sensor surface was regenerated each cycle with 3M MgCl2.

[2] = target: T2, recombinant human latent TGF-beta 1 (Flag-tagged human latent TGF-beta 1) (human, UniProt P01137 34-390); assay: as above
T2 construct: Latent form: LAP plus mature TGF-beta 1; also called human recombinant latent TGF-beta 1; SLC
T2 sequence (P01137 other isoform, or with tags, fused parts or gaps limits assumed): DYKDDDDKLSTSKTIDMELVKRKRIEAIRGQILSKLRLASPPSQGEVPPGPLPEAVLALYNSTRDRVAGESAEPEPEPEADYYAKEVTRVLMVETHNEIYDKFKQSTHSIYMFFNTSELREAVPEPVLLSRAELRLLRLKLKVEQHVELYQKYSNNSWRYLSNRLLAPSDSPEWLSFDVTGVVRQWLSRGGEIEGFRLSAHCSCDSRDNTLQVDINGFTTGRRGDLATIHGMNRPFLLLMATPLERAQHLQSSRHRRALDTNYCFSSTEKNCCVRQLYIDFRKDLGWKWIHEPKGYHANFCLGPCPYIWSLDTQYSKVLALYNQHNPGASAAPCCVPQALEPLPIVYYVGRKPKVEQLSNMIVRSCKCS
Protocol: as §1

[3] = target: T3, mouse cell surface latent TGF-beta 1 (mouse, UniProt P04202 30-390); assay: FACS on Ba/F3 cells, PE-labelled secondary antibody, MFI
T3 construct: Endogenous latent TGF-beta 1 (forming LLC) on Ba/F3 cells, and the latent TGF-beta 1 of mouse PBMC in the co-culture assay; also called cell surface mouse latent TGF-beta 1; latent TGF-beta 1 on Ba/F3 cells
T3 sequence (P04202 30-390): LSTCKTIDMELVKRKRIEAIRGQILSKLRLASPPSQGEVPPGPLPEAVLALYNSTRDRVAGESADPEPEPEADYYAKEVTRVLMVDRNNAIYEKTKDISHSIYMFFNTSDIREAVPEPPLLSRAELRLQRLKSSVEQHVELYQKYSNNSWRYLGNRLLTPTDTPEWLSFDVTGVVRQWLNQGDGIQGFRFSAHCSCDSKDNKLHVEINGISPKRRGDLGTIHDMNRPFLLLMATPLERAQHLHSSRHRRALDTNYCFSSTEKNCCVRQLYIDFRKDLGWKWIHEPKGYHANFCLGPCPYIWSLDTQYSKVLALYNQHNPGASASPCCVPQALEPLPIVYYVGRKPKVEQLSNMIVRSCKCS
Protocol: (§2) Anti-latent TGF-beta 1 antibodies were incubated with each cell line for 30 minutes at 4 degrees C. and washed with FACS buffer (2% FBS, 2 mM EDTA in PBS). Anti-KLH antibody (IC17) was used for a negative control antibody. Goat F(ab′)2 anti-Human IgG, Mouse ads-PE (Southern Biotech, Cat. 2043-09) or Goat F(ab′)2 anti-Mouse IgG(H+L), Human Ads-PE (Southern Biotech, Cat. 1032-09) was then added and incubated for 30 minutes at 4 degrees C. and washed with FACS buffer. Data acquisition was performed on an FACS Verse (Becton Dickinson), followed by analysis using FlowJo software (Tree Star) and GraphPad Prism software (GraphPad).

[4] = target: T4, human cell surface latent TGF-beta 1 (human, UniProt P01137 30-390); assay: FACS on FreeStyle 293-F cells, PE-labelled secondary antibody, MFI
T4 construct: also called cell surface human latent TGF-beta 1
T4 sequence (P01137 30-390): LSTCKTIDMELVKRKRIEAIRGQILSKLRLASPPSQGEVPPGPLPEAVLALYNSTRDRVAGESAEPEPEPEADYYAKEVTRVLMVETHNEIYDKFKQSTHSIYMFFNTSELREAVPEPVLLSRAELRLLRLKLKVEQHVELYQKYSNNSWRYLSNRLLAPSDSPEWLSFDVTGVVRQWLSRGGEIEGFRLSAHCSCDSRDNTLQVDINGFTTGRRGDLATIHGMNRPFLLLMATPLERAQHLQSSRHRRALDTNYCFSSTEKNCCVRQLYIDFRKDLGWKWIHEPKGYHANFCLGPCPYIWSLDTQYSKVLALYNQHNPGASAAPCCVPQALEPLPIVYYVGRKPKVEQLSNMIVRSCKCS
Protocol: as §2

[5] = target: T2, recombinant human latent TGF-beta 1 …; assay: SPR, Biacore T200, 37 C, pH 7.4; antibody captured by anti-human Fc, latent TGF-beta 1 injected at 3.125 to 50 nM
Protocol: as §1

[6] = target: T1, recombinant mouse latent TGF-beta 1 …; assay: SPR, Biacore T200, 37 C, pH 7.4; antibody captured by anti-human Fc, latent TGF-beta 1 at 3.125 to 50 nM as analyte; 1:1 model
Protocol: as §1

mouse mature TGF-beta 1 = target: T5, mouse mature TGF-beta 1 (mouse, UniProt P04202 279-390); assay: ELISA on plate-coated mouse mature TGF-beta 1, detection with anti-human IgG-HRP
T5 construct: mature; also the active TGF-beta 1 released in the mouse PBMC co-culture assay
T5 sequence (P04202 279-390 limits assumed): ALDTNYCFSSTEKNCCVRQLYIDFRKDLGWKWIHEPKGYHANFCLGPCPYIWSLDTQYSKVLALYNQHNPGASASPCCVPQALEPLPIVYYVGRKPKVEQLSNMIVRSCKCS
Protocol: 384-well plate was coated with mouse mature TGF-beta 1 for overnight at 4 degrees C. After four times washing with TBS-T, the plate was blocked with blocking buffer (1×TBS/tween20+0.5% BSA+1× Block ace) for 2 hours at room temperature. After four times washing with TBS-T, antibody solution was added into the plate and incubated for 2 hours at room temperature. After four times washing with TBS-T, a diluted secondary antibody (goat anti-human IgG-HRP Santa Cruz Cat.sc-2453) was add into the plate and incubated for 1 hour at room temperature. After four times washing with TBS-T, TMB solution was added into the plate and incubated for 15 min at room temperature, then 1N sulfuric acid was added to stop the reaction. The absorbance was measured at 450 nm/570 nm.

[7] = target: T1, recombinant mouse latent TGF-beta 1 …; assay: SPR, Biacore 8K, 37 C, pH 7.4; antibody captured by anti-human Fc, latent TGF-beta 1 as analyte; 1:1 model
[8] = target: T2, recombinant human latent TGF-beta 1 …; assay: as above
[9] = target: T2, recombinant human latent TGF-beta 1 …; assay: SPR, Biacore T200, 37 C, pH 7.4; antibody captured by anti-human Fc; 1:1 model; footnote: slow off rate <1E-05, KD cannot be uniquely determined
Protocol: (§3) The affinities of anti-latent TGF-beta 1 antibodies binding to human latent TGF-beta 1 at pH 7.4 were determined at 37 degrees C. using Biacore T200 instrument (GE Healthcare). Anti-human Fc (GE Healthcare) was immobilized onto all flow cells of a CM4 sensor chip using an amine coupling kit (GE Healthcare). All antibodies and analytes were prepared in ACES pH 7.4 containing 20 mM ACES, 150 mM NaCl, 1.2 mM CaCl₂, 0.05% Tween 20, and 0.005% NaN₃. Each antibody was captured onto the sensor surface by anti-human Fc. Antibody capture levels were aimed at 300 resonance unit (RU). Recombinant human latent TGF-beta 1 was injected at a concentration of 12.5 to 200 nM prepared by two-fold serial dilution, followed by dissociation. Sensor surface was regenerated each cycle with 3M MgCl₂.

[10] = target: T2, recombinant human latent TGF-beta 1 …; assay: SPR, Biacore T200, 37 C, pH 7.4; antibody captured by anti-human Fc, latent TGF-beta 1 at 12.5 to 200 nM as analyte; 1:1 model; remark: listed apart in the source
Protocol: as §3

T1 sequence (P04202 other isoform, or with tags, fused parts or gaps limits assumed): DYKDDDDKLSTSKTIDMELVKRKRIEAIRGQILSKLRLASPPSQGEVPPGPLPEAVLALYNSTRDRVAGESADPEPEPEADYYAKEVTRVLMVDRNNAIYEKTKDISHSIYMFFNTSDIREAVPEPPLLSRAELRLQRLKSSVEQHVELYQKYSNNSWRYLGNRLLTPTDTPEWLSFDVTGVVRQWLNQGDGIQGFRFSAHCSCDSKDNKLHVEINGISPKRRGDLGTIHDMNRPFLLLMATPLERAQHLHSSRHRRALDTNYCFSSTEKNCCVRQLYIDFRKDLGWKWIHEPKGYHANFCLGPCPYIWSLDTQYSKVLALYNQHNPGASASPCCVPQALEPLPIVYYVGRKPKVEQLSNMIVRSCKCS

B1: TBA865 (antibody, human IgG1, kappa, V domains shown)
VH: QSLEESGGRLVTPGGSLTLTCTVSGIDLSSYAMGWVRQAPGKGLEYIGIISSSGLTDYASWVNGRFTISKTSTTVDLKITSPTTEDTATYFCARIYDLWGPGTLVTVSS
VL: DIVMTQTPASVEAAVGGTLTIKCQASQSISDQLSWYQQKPGQPPKLLIYRASTLESGVPSRFKGSGSGTQFTLTISDLECADAATYYCQSYYYSYSSTYGNTFGGGTKVEIKR
- Kd [1]: 0.158 nM
- koff [1]: 5.37e-05 s⁻¹
- kon [1]: 341000 M⁻¹ s⁻¹
- Kd [2]: 0.16 nM
- koff [2]: 6.55e-05 s⁻¹
- kon [2]: 410000 M⁻¹ s⁻¹
- binding result [3]: no binding
- binding result [4]: no binding

B2: TBA873 (antibody, human IgG1, kappa, V domains shown)
VH: QSLEESGGRLVTPGGSLTLTCTVSGIDLSSYAMGWVRQAPGKGLEYIGIISNSGLTDYASWVNGRFTISKTSTTVDLKITSLTTEDTATYFCARIYDLWGPGTLVTVSS
VL: DIVMTQTPASVEAAVGGTVTIKCQASQSISNQLSWYQQKPGQPPKLLIYRASTLASGVSSRFKGSGSGTQFTLTISDLECAAAATYYCQSYYYSVSSTYGNTFGGGTKVEIKR
- Kd [1]: 0.276 nM
- koff [1]: 5.15e-05 s⁻¹
- kon [1]: 187000 M⁻¹ s⁻¹
- Kd [2]: 0.292 nM
- koff [2]: 6.72e-05 s⁻¹
- kon [2]: 230000 M⁻¹ s⁻¹
- binding result [3]: no binding
- binding result [4]: no binding

B3: TBS139 (antibody, mouse IgG1, kappa, V domains shown)
VH: QSLEESGGDLVKPGASLTLTCTASGFSFSSYWMSWVRQAPGKGLEYIGMISIIGTTYYASWAKGRFTISKTSSTTVTLQVTSLTAADTATYFCARGYVSNSNYWGLWGPGTLVTVSS
VL: AYDMTQTPASVEVAVGGTVTIKCQASQNIGSNLAWYQQKPGQPPKLLIYYASDLASGVPSRFKGSGSGTRYTLTISGVQCDDAATYYCQQYWSSSNVDNTFGGGTEVVVKR
- binding result [5]: no binding (tested: 50 nM)
- Kd [6]: 0.0225 nM
- koff [6]: 3.96e-05 s⁻¹
- kon [6]: 1.76e+06 M⁻¹ s⁻¹

B4: TBA1172 (antibody, human IgG1, kappa, V domains shown)
VH: QSVEESGGRLVTPGTPLTLTCTVSGFSLSNYAMGWVRQAPGKGLEWIGIISSGGVSYYASWARGRFTISKTSTTVDLKITSPTPEDTGTYFCARGQVPSSDTYYVPFNLWGPGTLVTVSS
VL: DIAMTQTPASVEAAVGGTVTIKCQASQSIGSDLAWYQQKPGQPPKLLIYRASTLASGVPLRFKGSGSGTQFTLTISDLECADAATYYCQTYYFTISSYGAFGGGTKVEIKR
notes: also called TBA1172aa-F1332m; TBS1172
- binding result (mouse mature TGF-beta 1): no binding (tested: 10 µg/mL)
- Kd [7]: 0.0919 nM
- koff [7]: 9.13e-05 s⁻¹
- kon [7]: 994000 M⁻¹ s⁻¹
- Kd [8]: 88 nM
- koff [8]: 0.0229 s⁻¹
- kon [8]: 261000 M⁻¹ s⁻¹

B5: TBA1314 (antibody, human IgG1, kappa, V domains shown)
VH: QSVEESGGRLVTPGTPLTLTCTVSGFSLSNYAMTWVRQAPGKGLEWIGVIYAGGNTYYANWVNGRFTISKTSTTVDLKITSPTTEDTATYFCARDVGSSSSGVYFNIWGPGTLVTVSS
VL: AYDMTQTPASVEVAVGGTVTIKCQASQSIGSRLAWYQQKPGQPPKLLIYDASTLASGVSSRFKGSGSGTEFTLTISGVECADAATYYCQQDYSYRHVDNIFGGGTKVEIKR
notes: also called TBA1314aa-F1332m
- Kd [9]: ≤ 0.00738 nM
- koff [9]: < 1e-05 s⁻¹
- kon [10]: 402000 M⁻¹ s⁻¹

B6: TBA1277 (antibody, human IgG1, kappa, V domains shown)
VH: QSVEESGGRLVTPGTPLTLTCTASGFSLSNYDMSWVRQAPGKGLEWIGNIHTADTTSYARWAKGRFTISKTSTTVDLKITSPTSEDTATYFCARGGSDFFYYEPYNIWGPGTLVTVSS
VL: AYDMTQTPASVEAAVGGTVTVRCQASESIGSRLAWYQQKVGQPPKLLIYDASTLASGVSSRFKGSGSGTEFTLTISDLECDDAATYYCQQYYTSNNVENTFGGGTKVEIKR
notes: also called TBA1277cc-F1332m
- Kd [10]: 0.0188 nM
- koff [10]: 1.63e-05 s⁻¹
- kon [10]: 867000 M⁻¹ s⁻¹

B7: TBA1300 (antibody, human IgG1, kappa, V domains shown)
VH: QEQLKESGGGLVTPGGTLTLTCTVSGFSLSNYDMSWVRQAPGKGLEWIGAIYTAGTTSYASWAKGRFTISKTSTTVDLKITSPTTEDTATYFCARGGSSFFYYAAHNIWGPGTLVTVSS
VL: AYDMTQTPASVEAAVGGTVTIKCQASQSIGSNLAWYQQKPGQPPKLLIYDASKLPSGVPSRFKGSGSGTEFTLTISDLECDDAATYYCQQYYTTSDVDNTFGGGTKVEIKR
notes: also called TBA1300ff-F1332m
- Kd [10]: 0.0389 nM
- koff [10]: 2.31e-05 s⁻¹
- kon [10]: 593000 M⁻¹ s⁻¹

B8: TBA0947 (antibody, human IgG1, kappa, V domains shown)
VH: QSVEESGGRLVTPGTPLTLTCTVSGFSLSSYAMNWVRQAPGKGLEWIGYIYTSGTTYHANWARGRFTISKTSTTVDLKMTSLTTEDTATYFCARGTGISDYYYWVMDLWGPGTLVTVSS
VL: AFELTQTPSSVEAAVGGTVTIKCQASQSISTYLAWYQQRPGQPPKLLIYKASTLASGVPSRFKGSGSGTDFTLTISDLECADAATYFCQSYCDGDSVGFGGGTKVEIKR
notes: also called TBA0947gg-F1332m; TBA947
- binding result (mouse mature TGF-beta 1): no binding (tested: 10 µg/mL)
- Kd [7]: 0.0419 nM
- koff [7]: 1.07e-05 s⁻¹
- kon [7]: 256000 M⁻¹ s⁻¹
- Kd [8]: 7.65 nM
- koff [8]: 0.00224 s⁻¹
- kon [8]: 292000 M⁻¹ s⁻¹

B9: TBA0946 (antibody, human IgG1, kappa, V domains shown)
VH: QSLEESGGRLVTPGTPLTLTCTTSGFSLNNYYMNWVRQAPGKGLEWIGLTDNDGTTYYANWAKGRFTVSKTSTTVDLKMTSPTTEDTATYFCVRDAGYSRNLWGPGTLVTVSS
VL: AYDMTQTPASVEVAVGGTVTIKCQASQSISSSLAWYQQKPGQPPKQLIYRASTLASGVSSRFKGSGSGTQFTLTISGVECADAATYYCQQTYSWSGLDNVFGGGTKVEIKR
notes: also called TBA0946bb-F1332m; TBA946
- binding result (mouse mature TGF-beta 1): no binding (tested: 10 µg/mL)
- Kd [7]: 0.0793 nM
- koff [7]: 7.66e-05 s⁻¹
- kon [7]: 966000 M⁻¹ s⁻¹
